Laboratory results published in patent US20160177307.

Test system: T1, VEGF-121 (Homo sapiens), P15692-9
T1 sequence: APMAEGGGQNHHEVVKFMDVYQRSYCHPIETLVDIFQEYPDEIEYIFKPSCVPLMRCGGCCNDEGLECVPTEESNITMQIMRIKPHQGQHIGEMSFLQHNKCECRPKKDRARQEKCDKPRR
Assay: filter

AGCCGTTAAGTGCTTGTAGGATTTAAATGGA [4867-31_97]
Kd (P=Nap-dU, C3 spacer at 8): 7.3 nM

AGCCGTTAAGTGCTTGTAGGATTTAAATGGA [4867-31_101]
Kd (P=Nap-dU): 5.89 nM

AGCCGTTCAAGTGCTTGTAGATTTAAATGGA [4867-31_99]
Kd (P=Nap-dU, C3 spacer at 20): 0.22 nM

AGCCGTTCAAGTGCTTGTAGGATTTAAATGGA [4867-31_66]
Kd (P=Nap-dU, 2'-OMe G2): 0.17 nM

AGCCGTTCAAGTGCTTGTAGGATTTAAATGGA [4867-31_67]
Kd (P=Nap-dU, 2'-OMe C3 (inferred, superscript lost)): 0.33 nM

AGCCGTTCAAGTGCTTGTAGGATTTAAATGGA [4867-31_68]
Kd (P=Nap-dU, 2'-OMe C4 (inferred, superscript lost)): 7.55 nM

AGCCGTTCAAGTGCTTGTAGGATTTAAATGGA [4867-31_72]
Kd (P=Nap-dU, 2'-OMe C8 (inferred, superscript lost)): 0.21 nM

AGCCGTTCAAGTGCTTGTAGGATTTAAATGGA [4867-31_73]
Kd (P=Nap-dU, 2'-OMe A9): 5.99 nM

AGCCGTTCAAGTGCTTGTAGGATTTAAATGGA [4867-31_74]
Kd (P=Nap-dU, 2'-OMe A10): 3.14 nM

AGCCGTTCAAGTGCTTGTAGGATTTAAATGGA [4867-31_75]
Kd (P=Nap-dU, 2'-OMe G11): 0.15 nM

AGCCGTTCAAGTGCTTGTAGGATTTAAATGGA [4867-31_76]
Kd (2'-OMe-U at 12 in place of NapdU, other P are NapdU, 2'-OMe-U for NapdU): 22.9 nM

AGCCGTTCAAGTGCTTGTAGGATTTAAATGGA [4867-31_77]
Kd (P=Nap-dU, 2'-OMe G13): 6.64 nM

AGCCGTTCAAGTGCTTGTAGGATTTAAATGGA [4867-31_78]
Kd (P=Nap-dU, 2'-OMe C14): 0.24 nM

AGCCGTTCAAGTGCTTGTAGGATTTAAATGGA [4867-31_81]
Kd (P=Nap-dU, 2'-OMe G17): 0.44 nM

AGCCGTTCAAGTGCTTGTAGGATTTAAATGGA [4867-31_83]
Kd (P=Nap-dU, 2'-OMe A19): 0.1 nM

AGCCGTTCAAGTGCTTGTAGGATTTAAATGGA [4867-31_84]
Kd (P=Nap-dU, 2'-OMe G20): 0.21 nM

AGCCGTTCAAGTGCTTGTAGGATTTAAATGGA [4867-31_85]
Kd (P=Nap-dU, 2'-OMe G21): 25.8 nM

AGCCGTTCAAGTGCTTGTAGGATTTAAATGGA [4867-31_86]
Kd (P=Nap-dU, 2'-OMe A22): 6.21 nM

AGCCGTTCAAGTGCTTGTAGGATTTAAATGGA [4867-31_90]
Kd (P=Nap-dU, 2'-OMe A26): 2.85 nM

AGCCGTTCAAGTGCTTGTAGGATTTAAATGGA [4867-31_91]
Kd (P=Nap-dU, 2'-OMe A27): 0.35 nM

AGCCGTTCAAGTGCTTGTAGGATTTAAATGGA [4867-31_92]
Kd (P=Nap-dU, 2'-OMe A28): 8.87 nM

AGCCGTTCAAGTGCTTGTAGGATTTAAATGGA [4867-31_94]
Kd (P=Nap-dU, 2'-OMe G30): 0.21 nM

AGCCGTTCAAGTGCTTGTAGGATTTAAATGGA [4867-31_95]
Kd (P=Nap-dU, 2'-OMe G31): 0.19 nM

AGCCGTTCAAGTGCTTGTAGGATTTAAATGGA [4867-31_96]
Kd (P=Nap-dU, 2'-OMe A32): 0.13 nM

AGCCGTTCAAGTGCTTTAGGATTTAAATGGA [4867-31_98]
Kd (C3 spacer at 17, all P are NapdU, C3 at G17): 0.1 nM

CCCCCATCAGCCGTTCAAGTGCTTGTAGGATTTAAATGGAATTGGAGGA [4867-15_27]
Kd (P=Nap-dU, C3 spacer at 4): 0.4 nM

CCCTCATCAGCCGTTCAAGTGCTTGTAGGATTTAAATGGAATTGGAGGA [4867-15_28]
Kd (P=Nap-dU, C3 spacer at 5): 0.34 nM

CCCTCATCAGCCGTTCAAGTGCTTGTAGGATTTAAATGGAATTGGAGGA [4867-15_29]
Kd (P=Nap-dU, C3 spacer at 6): 0.2 nM

CCCTCCACAGCCGTTCAAGTGCTTGTAGGATTTAAATGGAATTGGAGGA [4867-15_31]
Kd (P=Nap-dU, C3 spacer at 8): 0.095 nM

CCCTCCATAGCCGTTCAAGTGCTTGTAGGATTTAAATGGAATTGGAGGA [4867-15_32]
Kd (P=Nap-dU, C3 spacer at 9): 0.079 nM

CCCTCCATCACCGTTCAAGTGCTTGTAGGATTTAAATGGAATTGGAGGA [4867-15_34]
Kd (P=Nap-dU, C3 spacer at 11): 0.14 nM

CCCTCCATCAGCCGTTAAGTGCTTGTAGGATTTAAATGGAATTGGAGGA [4867-15_40]
Kd (P=Nap-dU, C3 spacer at 17): 0.17 nM

CCCTCCATCAGCCGTTCAAGTCTTGTAGGATTTAAATGGAATTGGAGGA [4867-15_45]
Kd (P=Nap-dU, C3 spacer at 22): 3.5 nM

CCCTCCATCAGCCGTTCAAGTGCTTGAGGATTTAAATGGAATTGGAGGA [4867-15_50]
Kd (P=Nap-dU, C3 spacer at 27): 3.5 nM

CCCTCCATCAGCCGTTCAAGTGCTTGTAGATTTAAATGGAATTGGAGGA [4867-15_52]
Kd (P=Nap-dU, C3 spacer at 29): 0.2 nM

CCCTCCATCAGCCGTTCAAGTGCTTGTAGATTTAAATGGAATTGGAGGA [4867-15_53]
Kd (P=Nap-dU, C3 spacer at 30): 23 nM

CCCTCCATCAGCCGTTCAAGTGCTTGTAGGATTTAAATGAATTGGAGGA [4867-15_62]
Kd (P=Nap-dU, C3 spacer at 39): 53 nM
